Molecular target: Recombinant full-length human α-synuclein (1–140) (human, UniProt P37840 1-140)
Test: turbidity of phase separation (absorbance at 350 nm)
Settings: both partners purified

B1: PrP 23–144 (Y145Stop) (domain or fragment)
chain: KKRPKPGGWNTGGSRYPGQGSPGGNRYPPQGGGGWGQPHGGGWGQPHGGGWGQPHGGGWGQPHGGGWGQGGGTHSQWNKPSKPKTNMKHMAGAAAAGAVVGGLGGYMLGSAMSRPIIHFGSD
B1: binds.
